How the values were obtained:
[1] = molecular target: T1, N87A-GILZ, full mouse GILZ in which an Asparagine is mutated in Alanine, in vitro 35S-labeled (mouse, UniProt Q9Z2S7 1-137, [35S]-Methionine label); assay: GST pull-down of in vitro 35S-labeled protein
T1 construct: range 1-137
T1 sequence (looked up): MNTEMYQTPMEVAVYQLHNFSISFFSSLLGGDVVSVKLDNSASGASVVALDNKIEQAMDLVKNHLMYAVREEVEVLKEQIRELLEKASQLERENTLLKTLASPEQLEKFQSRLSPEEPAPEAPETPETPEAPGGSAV

[2] = molecular target: T2, ERK-2 in lysates of murine thymocytes (mouse, UniProt P63085 2-358); assay: GST pull-down from murine thymocyte lysates, Western blot with α-ERK-1/-2
T2 construct: Detected together with ERK-1 by α-ERK-1/-2 antibodies; also called ERK-1/-2
Method: (§1) Extracts were prepared from the indicated cell, treated or untreated with DEX (10 microMolar), as previously described (Ayroldi E et al., 2001). GST or GST fusion proteins, loaded on Sepharose beads, were mixed with cell extracts in binding buffer (NaCl 250 milliMolar, HEPES (ph7.5) (pH 7.5) 50 milliMolar, EDTA 0.5 milliMolar, Nonidet P-40 0.1% (v/v), phenylmethylsulfonyl fluoride (PMSF) 0.2 milliMolar, dithiothreitol (DTT) 1 milliMolar, bovine serum albumin (BSA) 100 μg/ml), heated for 5 minutes at 42° C., incubated for 2 hours at 4° C., washed extensively with binding buffer, resuspended in loading buffer and analysed by SDS-PAGE and Western blot as described above. In the case of murine thymocytes extracts, the incubation with the beads was performed overnight and at 4° C. The α-MEK and α-ERK antibodies (Upstate Biotechnology) were used following manufacturer's instructions.

[3] = molecular target: T3, ERK-1 in lysates of murine thymocytes (mouse, UniProt Q63844 2-380); assay: as above
T3 construct: Detected together with ERK-2 by α-ERK-1/-2 antibodies; also called ERK-1/-2
T3 sequence (Q63844 2-380 limits assumed): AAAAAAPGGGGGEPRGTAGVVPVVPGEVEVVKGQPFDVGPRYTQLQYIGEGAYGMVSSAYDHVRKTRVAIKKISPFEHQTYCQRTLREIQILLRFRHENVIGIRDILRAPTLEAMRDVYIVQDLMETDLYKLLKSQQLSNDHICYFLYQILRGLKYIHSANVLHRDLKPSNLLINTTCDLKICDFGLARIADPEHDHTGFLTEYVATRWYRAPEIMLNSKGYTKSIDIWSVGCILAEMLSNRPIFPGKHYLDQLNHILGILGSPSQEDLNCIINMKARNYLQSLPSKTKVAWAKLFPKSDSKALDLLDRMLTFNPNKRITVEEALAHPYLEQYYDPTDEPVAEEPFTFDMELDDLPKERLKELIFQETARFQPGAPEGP
Method: as §1

[4] = molecular target: T4, GST alone (Glutathione S-transferase, control) (UniProt P08515 1-218 = GST); assay: GST pull-down from thymocyte whole cell lysates, Western blot with α-GILZ
T4 construct: Control loaded on glutathione Sepharose beads; also called GST-protein alone
T4 sequence (P08515 whole entry): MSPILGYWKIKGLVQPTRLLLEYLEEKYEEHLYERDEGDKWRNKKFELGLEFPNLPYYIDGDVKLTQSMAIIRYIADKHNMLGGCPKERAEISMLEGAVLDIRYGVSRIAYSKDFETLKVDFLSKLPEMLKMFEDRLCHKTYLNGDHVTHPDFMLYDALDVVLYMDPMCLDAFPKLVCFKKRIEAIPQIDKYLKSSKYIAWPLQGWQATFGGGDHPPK
Method: as §1

[5] = molecular target: T4, GST alone (Glutathione S-transferase, …); assay: GST pull-down of in vitro 35S-labeled protein
[6] = molecular target: T5, GST-Raf-RBD, GST fusion protein comprising the Ras Binding Domain of human Raf (Raf-RBD, residues 1-149) (human, UniProt P04049 1-149); assay: GST pull-down of in vitro 35S-labeled protein
T5 construct: range 1-149; Immobilised on glutathione Sepharose beads; not shown: Glutathione S-transferase (GST) encoded by the pGEX-4T2 plasmid (Pharmacia)

B1: Glutathione S-transferase GILZ fusion protein (GST-GILZ), containing entire mouse GILZ (other, UniProt Q9Z2S7 1-137, looked up)
chain: MNTEMYQTPMEVAVYQLHNFSISFFSSLLGGDVVSVKLDNSASGASVVALDNKIEQAMDLVKNHLMYAVREEVEVLKEQIRELLEKNSQLERENTLLKTLASPEQLEKFQSRLSPEEPAPEAPETPETPEAPGGSAV
notes: range 1-137; Immobilised on glutathione Sepharose beads; Prepared as in Ayroldi E et al., 2001; not shown: Glutathione S-transferase (GST) encoded by the pGEX-4T2 plasmid (Pharmacia)
- binding result [1]: no binding
- binding result [2]: no binding
- binding result [3]: no binding

B2: GILZ, endogenous, in whole cell lysates of murine thymocytes (DEX-treated or untreated) (other, mouse, UniProt Q9Z2S7 1-137, looked up)
chain: MNTEMYQTPMEVAVYQLHNFSISFFSSLLGGDVVSVKLDNSASGASVVALDNKIEQAMDLVKNHLMYAVREEVEVLKEQIRELLEKNSQLERENTLLKTLASPEQLEKFQSRLSPEEPAPEAPETPETPEAPGGSAV
notes: also called mGILZ
- binding result [4]: no binding

B3: in vitro 35S-labeled full GILZ (full-length mouse GILZ, in vitro translated) (other, UniProt Q9Z2S7 1-137, looked up)
chain: MNTEMYQTPMEVAVYQLHNFSISFFSSLLGGDVVSVKLDNSASGASVVALDNKIEQAMDLVKNHLMYAVREEVEVLKEQIRELLEKNSQLERENTLLKTLASPEQLEKFQSRLSPEEPAPEAPETPETPEAPGGSAV
modifications: [35S]-Methionine label
notes: range 1-137; also called 35S-GILZ; GILZ full-length protein
- binding result [5]: no binding

B4: ΔN-GILZ, GILZ lacking the N-terminal region (first 8 amino acids of mGILZ fused with the residues 73-137), in vitro 35S-labeled (other)
chain: MNTEMYQTVEVLKEQIRELLEKNSQLERENTLLKTLASPEQLEKFQSRLSPEEPAPEAPETPETPEAPGGSAV
modifications: [35S]-Methionine label ; [35S]-methionine isotopic label from in vitro translation; letters unchanged
notes: also called DN-GILZ; 35S-ΔN-GILZ
- binding result [6]: no binding

B5: ΔC-GILZ, GILZ lacking the C-terminal region (first 97 amino acids of mouse GILZ), in vitro 35S-labeled (other)
chain: MNTEMYQTPMEVAVYQLHNFSTSFFSSLLGGDVVSVKLDNSASGASVVALDNKIEQAMDLVKNHLMYAVREEVEVLKEQIRELLEKNSQLERENTLL
modifications: [35S]-methionine isotopic label from in vitro translation; letters unchanged
notes: also called 35S-AC-GILZ
- binding result [5]: no binding

Reference: patent US20050164906A1 (APPLIED RESEARCH SYSTEMS ARS HOLDING N V, published 2005)
